PMC3890319, “Role of Receptor Activity Modifying Protein 1 in Function of the Calcium Sensing Receptor in the Human TT Thyroid Carcinoma Cell Line” (PLoS ONE, 2014)

T1: Calcium Sensing Receptor, C-terminal Citrine fusion (UniProt P41180 20-1078)
T1 construct: Calcium Sensing Receptor (CaSR); cDNA cloned without its stop codon between HindIII and Not1 of pcDNA3.1-Citrine; Acceptor of the FRET pair; it says only that the cDNA was cloned excluding the stop codon; also called CaSR; CaSR-citrine; source: COS-7, transfected by electroporation (pcDNA3.1), in fixed cells; not shown: Citrine, C-terminal, kept
T1 sequence (looked up): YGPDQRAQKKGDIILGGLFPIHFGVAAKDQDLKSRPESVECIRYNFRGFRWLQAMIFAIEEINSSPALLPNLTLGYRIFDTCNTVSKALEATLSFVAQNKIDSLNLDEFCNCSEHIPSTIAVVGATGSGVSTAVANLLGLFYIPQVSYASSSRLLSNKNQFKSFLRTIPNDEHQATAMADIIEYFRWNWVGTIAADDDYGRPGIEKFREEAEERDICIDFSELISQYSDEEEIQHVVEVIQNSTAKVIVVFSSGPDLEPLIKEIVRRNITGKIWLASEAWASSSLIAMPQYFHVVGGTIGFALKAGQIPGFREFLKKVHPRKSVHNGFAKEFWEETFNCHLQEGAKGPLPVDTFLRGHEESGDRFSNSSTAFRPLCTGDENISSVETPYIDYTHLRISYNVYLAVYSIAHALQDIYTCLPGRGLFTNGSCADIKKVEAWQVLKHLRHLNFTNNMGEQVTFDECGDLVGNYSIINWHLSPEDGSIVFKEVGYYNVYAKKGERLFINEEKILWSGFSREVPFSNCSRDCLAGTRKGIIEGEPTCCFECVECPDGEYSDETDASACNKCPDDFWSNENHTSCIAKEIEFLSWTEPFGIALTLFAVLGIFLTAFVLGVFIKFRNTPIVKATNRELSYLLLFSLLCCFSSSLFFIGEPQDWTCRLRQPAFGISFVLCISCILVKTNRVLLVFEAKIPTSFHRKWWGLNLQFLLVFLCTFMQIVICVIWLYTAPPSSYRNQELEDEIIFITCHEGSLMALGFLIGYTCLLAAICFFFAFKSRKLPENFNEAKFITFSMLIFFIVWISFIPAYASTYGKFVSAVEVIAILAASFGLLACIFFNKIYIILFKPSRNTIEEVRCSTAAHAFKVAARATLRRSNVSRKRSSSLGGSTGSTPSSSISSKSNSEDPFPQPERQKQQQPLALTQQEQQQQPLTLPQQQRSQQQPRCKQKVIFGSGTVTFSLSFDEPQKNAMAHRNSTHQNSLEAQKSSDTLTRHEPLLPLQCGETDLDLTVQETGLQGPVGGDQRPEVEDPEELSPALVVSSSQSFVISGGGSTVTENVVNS

B1: Receptor Activity Modifying Protein 1, C-terminal Cerulean fusion (natural protein, UniProt O60894 27-148, looked up)
chain: CQEANYGALLRELCLTQFQVDMEAVGETLWCDWGRTIRSYRELADCTWHMAEKLGCFWPNAEVDRFFLAVHGRYFRSCPISGRAVRDPPGSILYPFIVVPITVTLLVTALVVWQSKRTEGIV
notes: Receptor Activity Modifying Protein 1 (RAMP1); cDNA cloned without its stop codon between Kpn1 and Not1 of pcDNA3.1-Cerulean; Donor of the FRET pair; also called RAMP1; RAMP1-Cer; source: COS-7, transfected by electroporation (pcDNA3.1), in fixed cells; not shown: Cerulean, C-terminal, kept
B2: Receptor Activity Modifying Protein 3, C-terminal Cerulean fusion (natural protein, UniProt O60896 24-148, looked up)
chain: RAGGCNETGMLERLPLCGKAFADMMGKVDVWKWCNLSEFIVYYESFTNCTEMEANVVGCYWPNPLAQGFITGIHRQFFSNCTVDRVHLEDPPDEVLIPLIVIPVVLTVAMAGLVVWRSKRTDTLL
notes: Receptor Activity Modifying Protein 3 (RAMP3); cDNA cloned without its stop codon between Kpn1 and Not1 of pcDNA3.1-Cerulean; Donor of the FRET pair; also called RAMP3; RAMP3-Cer; source: COS-7, transfected by electroporation (pcDNA3.1), in fixed cells; not shown: Cerulean, C-terminal, kept

Target: T1, Calcium Sensing Receptor, C-terminal …
Test: FRET or BRET; sensitized-emission FRET (NFRET, PixFRET) and FRET-based stoichiometry in cell-surface regions of interest (50-pixel dots) of fixed COS-7 cells co-transfected with CaSR-Citrine (acceptor) and RAMP-Cerulean (donor); confocal microscopy at room temperature; NFRET as percent of a Cerulean-linker-Citrine positive control; negative control Citrine alone + RAMP-Cerulean
Settings: partners not purified

| Binder | stoichiometry N |
| --- | --- |
| B1 | 2.19 CaSR:RAMP |
| B2 | 1.5 CaSR:RAMP |
